{"source": "patent US12599654B2", "about": "“Immunogenic peptide fragments of metalloprotease ADAMTS-7 and uses thereof in anti-atherosclerosis and related diseases” (BEIJING KIMWAY BIOTECH CO. LTD, priority 2019, dated 2026)", "origin": "cited, not measured here", "target": "T1, proprotein convertase subtilisin/kexin type 9 (PCSK9) (Homo sapiens, UniProt Q8NBP7)", "T1 construct": "host or cells: human trial subjects (endogenous circulating PCSK9)", "conditions": "low-dose, phase I clinical trials; cited from earlier work"}
{"substance": "REGN727: monoclonal antibody against the proprotein convertase subtilisin/kexin type 9 (PCSK9)", "values": [{"measurement": "reduction of LDL level of subjects", "result": "more than 30%"}]}
